Experiment [1] concerns the target T1, yeast Smt3 (Smt3-6xHis) (S. cerevisiae, UniProt Q12306 1-101 = SUMO, U-[13C,15N] labelled in the NMR experiments).
T1 chain: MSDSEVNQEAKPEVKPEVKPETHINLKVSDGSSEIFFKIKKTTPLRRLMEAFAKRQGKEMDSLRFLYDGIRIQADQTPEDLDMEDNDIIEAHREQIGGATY
The experiment in a line: ITC; Smt3 150 uM.

Experiment [2] concerns the target T1, yeast Smt3 (Smt3-6xHis). The experiment in a line: ITC; Smt3 300 uM. On the technique in general: Isothermal titration calorimetry measures the heat released or taken up as one component is titrated into another.

For orientation: Kd means the concentration at which binding is half-saturated.

Consider ENDIIMVSTDE [synthetic Mre11-SIM3 peptide, wild type], for which the Kd with yeast Smt3 (Smt3-6xHis) [1] is 30.2 µM; with yeast Smt3 (Smt3-6xHis) [2], 15.3 µM.

For the origin of these results see paper PMC13233820 (2026).
